The record followed here is PMC8131196, “Structure and dynamics of a mycobacterial type VII secretion system” (Nature, 2021).

Assay in all cases: cryo-EM structure
For one series, the target named is T1, EccB5 (M. tuberculosis H37Rv, UniProt P9WNQ9 1-506).
T1 construct: also called inner EccB5; outer EccB5
T1 sequence: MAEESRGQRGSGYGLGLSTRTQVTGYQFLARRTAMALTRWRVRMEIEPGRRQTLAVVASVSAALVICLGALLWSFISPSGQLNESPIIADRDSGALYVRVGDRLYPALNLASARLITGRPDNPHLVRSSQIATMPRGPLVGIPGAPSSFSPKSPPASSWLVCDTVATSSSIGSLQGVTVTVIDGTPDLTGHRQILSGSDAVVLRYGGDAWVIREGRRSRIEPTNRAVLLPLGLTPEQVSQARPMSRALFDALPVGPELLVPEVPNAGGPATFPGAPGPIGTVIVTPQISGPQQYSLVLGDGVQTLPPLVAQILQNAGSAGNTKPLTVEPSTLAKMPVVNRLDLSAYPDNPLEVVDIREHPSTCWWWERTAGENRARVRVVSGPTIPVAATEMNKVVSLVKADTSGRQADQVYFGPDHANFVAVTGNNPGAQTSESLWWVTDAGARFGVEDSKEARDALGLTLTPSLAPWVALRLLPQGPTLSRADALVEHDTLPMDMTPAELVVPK
As to conditions: both partners purified.

A further series deals with T2, EccC5 (M. tuberculosis H37Rv, UniProt P9WNA5 1-1391).
T2 construct: also called EccC5 ATPase; not shown: TwinStrep, C-terminal, kept
T2 sequence: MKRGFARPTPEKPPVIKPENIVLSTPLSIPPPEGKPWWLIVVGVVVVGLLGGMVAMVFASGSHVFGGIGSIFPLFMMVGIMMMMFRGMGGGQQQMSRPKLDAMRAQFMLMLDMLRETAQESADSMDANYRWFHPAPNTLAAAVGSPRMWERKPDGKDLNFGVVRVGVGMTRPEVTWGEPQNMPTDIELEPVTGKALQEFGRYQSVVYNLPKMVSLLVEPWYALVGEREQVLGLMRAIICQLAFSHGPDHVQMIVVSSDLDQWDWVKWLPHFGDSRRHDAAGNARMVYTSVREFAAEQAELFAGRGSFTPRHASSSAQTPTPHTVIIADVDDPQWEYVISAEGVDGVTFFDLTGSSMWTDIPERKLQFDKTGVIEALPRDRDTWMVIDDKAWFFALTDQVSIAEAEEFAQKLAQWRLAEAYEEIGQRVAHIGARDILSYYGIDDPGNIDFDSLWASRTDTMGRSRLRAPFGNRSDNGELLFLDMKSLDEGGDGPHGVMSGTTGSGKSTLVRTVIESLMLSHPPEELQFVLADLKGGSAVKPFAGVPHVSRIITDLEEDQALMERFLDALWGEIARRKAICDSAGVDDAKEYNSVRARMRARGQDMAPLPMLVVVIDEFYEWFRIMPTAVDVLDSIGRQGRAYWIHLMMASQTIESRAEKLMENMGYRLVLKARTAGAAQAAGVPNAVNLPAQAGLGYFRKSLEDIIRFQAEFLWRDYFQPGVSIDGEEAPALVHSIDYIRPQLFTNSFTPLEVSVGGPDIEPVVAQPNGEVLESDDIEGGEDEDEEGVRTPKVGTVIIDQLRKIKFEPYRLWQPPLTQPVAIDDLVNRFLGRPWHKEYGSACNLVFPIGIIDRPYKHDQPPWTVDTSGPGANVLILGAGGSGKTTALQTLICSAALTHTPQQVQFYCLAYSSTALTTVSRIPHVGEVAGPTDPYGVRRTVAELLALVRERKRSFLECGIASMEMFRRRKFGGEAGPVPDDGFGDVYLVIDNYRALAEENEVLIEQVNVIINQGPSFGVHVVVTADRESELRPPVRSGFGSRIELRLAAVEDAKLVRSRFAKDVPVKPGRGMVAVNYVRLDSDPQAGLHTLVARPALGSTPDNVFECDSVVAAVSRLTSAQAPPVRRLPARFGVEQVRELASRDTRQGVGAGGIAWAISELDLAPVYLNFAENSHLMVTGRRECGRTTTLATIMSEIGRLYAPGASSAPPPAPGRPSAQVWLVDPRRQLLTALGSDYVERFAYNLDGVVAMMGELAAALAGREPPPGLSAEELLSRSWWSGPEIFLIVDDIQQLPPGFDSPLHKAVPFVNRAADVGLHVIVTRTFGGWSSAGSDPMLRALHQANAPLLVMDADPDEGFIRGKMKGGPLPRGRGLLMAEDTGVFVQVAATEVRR
As to conditions: both partners purified.

Another series concerns the target T3, MycP5 protease (M. tuberculosis H37Rv, UniProt O53945 40-585).
T3 construct: also called mycosin
T3 sequence: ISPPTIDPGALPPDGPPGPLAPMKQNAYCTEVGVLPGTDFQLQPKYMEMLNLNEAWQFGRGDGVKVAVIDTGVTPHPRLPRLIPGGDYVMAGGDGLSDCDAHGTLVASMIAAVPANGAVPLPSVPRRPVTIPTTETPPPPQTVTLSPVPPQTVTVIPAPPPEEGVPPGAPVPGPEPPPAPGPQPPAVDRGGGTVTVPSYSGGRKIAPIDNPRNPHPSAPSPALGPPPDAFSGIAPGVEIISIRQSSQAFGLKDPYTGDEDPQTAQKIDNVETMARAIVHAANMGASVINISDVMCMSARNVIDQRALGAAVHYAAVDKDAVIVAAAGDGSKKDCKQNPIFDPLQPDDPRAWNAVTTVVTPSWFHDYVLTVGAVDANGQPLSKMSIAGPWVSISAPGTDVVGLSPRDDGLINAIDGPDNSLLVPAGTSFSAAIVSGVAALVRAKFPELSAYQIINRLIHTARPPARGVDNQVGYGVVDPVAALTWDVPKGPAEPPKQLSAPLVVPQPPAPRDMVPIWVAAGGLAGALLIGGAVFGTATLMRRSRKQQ
As to conditions: both partners purified.

The series “cryo-EM structure” concerns the molecule itself.

B1: EccD5 (natural protein)
chain: MTAVADAPQADIEGVASPQAVVVGVMAGEGVQIGVLLDANAPVSVMTDPLLKVVNSRLRELGEAPLEATGRGRWALCLVDGAPLRATQSLTEQDVYDGDRLWIRFIADTERRSQVIEHISTAVASDLSKRFARIDPIVAVQVGASMVATGVVLATGVLGWWRWHHNTWLTTIYTAVIGVLVLAVAMLLLMRAKTDADRRVADIMLMSAIMPVTVAAAAAPPGPVGSPQAVLGFGVLTVAAALALRFTGRRLGIYTTIVIIGALTMLAALARMVAATSAVTLLSSLLLICVVAYHAAPALSRRLAGIRLPVFPSATSRWVFEARPDLPTTVVVSGGSAPVLEGPSSVRDVLLQAERARSFLSGLLTGLGVMVVVCMTSLCDPHTGQRWLPLILAGFTSGFLLLRGRSYVDRWQSITLAGTAVIIAAAVCVRYALELSSPLAVSIVAAILVLLPAAGMAAAAHVPHTIYSPLFRKFVEWIEYLCLMPIFPLALWLMNVYAAIRYR
notes: also called inner EccD5; outer EccD5
For the molecule B1, the binding result in the series with EccB5, in the series with EccC5 and in the series with MycP5 protease was “binds” in each case. Also, the “stoichiometry N” value in “cryo-EM structure” came to 2.

The stoichiometry N is the number of molecules, sites or subunits per partner or assembly.
